Assay results: patent publication US20250002588A1 (DIAGONAL THERAPEUTICS, published 2025)

B1: DGL278 (bispecific antibody, human IgG1, lambda)
heavy: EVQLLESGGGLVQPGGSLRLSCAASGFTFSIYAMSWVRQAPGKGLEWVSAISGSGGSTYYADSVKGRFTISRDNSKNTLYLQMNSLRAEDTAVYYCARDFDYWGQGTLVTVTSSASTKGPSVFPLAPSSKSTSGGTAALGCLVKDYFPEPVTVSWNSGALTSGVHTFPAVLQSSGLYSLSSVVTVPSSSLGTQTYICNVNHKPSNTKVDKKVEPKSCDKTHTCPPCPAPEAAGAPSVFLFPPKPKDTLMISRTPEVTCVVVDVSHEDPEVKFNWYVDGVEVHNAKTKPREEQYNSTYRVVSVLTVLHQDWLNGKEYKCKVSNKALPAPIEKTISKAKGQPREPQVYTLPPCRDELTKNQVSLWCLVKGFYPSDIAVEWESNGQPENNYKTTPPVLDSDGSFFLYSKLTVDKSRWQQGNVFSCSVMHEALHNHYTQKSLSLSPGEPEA
light: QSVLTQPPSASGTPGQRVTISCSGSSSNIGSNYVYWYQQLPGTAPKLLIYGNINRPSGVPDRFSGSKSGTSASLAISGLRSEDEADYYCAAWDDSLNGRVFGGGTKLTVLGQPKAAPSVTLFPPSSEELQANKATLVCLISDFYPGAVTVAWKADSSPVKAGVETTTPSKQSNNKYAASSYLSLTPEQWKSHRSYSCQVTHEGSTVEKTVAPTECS
chain: EVQLLESGGGLVQPGGSLRLSCAASGFTFSIYAMSWVRQAPGKGLEWVSAISGSGGSTYYADSVKGRFTISRDNSKNTLYLQMNSLRAEDTAVYYCARDFDYWGQGTLVTVTSSGGGGSGGGGSGGGGSQSVLTQPPSASGTPGQRVTISCSGSSSNIGSNYVYWYQQLPGTAPKLLIYGNINRPSGVPDRFSGSKSGTSASLAISGLRSEDEADYYCAAWDDSLNGRVFGGGTKLTVLDKTHTCPPCPAPEAAGAPSVFLFPPKPKDTLMISRTPEVTCVVVDVSHEDPEVKFNWYVDGVEVHNAKTKPREEQYNSTYRVVSVLTVLHQDWLNGKEYKCKVSNKALPAPIEKTISKAKGQPREPQVCTLPPSRDELTKNQVSLSCAVKGFYPSDIAVEWESNGQPENNYKTTPPVLDSDGSFFLVSKLTVDKSRWQQGNVFSCSVMHEALHNHYTQKSLSLSPGKWSHPQFEK
B2: DGL276 (bispecific antibody)
chain 1: EVQLLESGGGLVQPGGSLRLSCAASGFTFSSYAMSWVRQAPGKGLEWVANINQDGSEKNYVDSMRGRFTISRDNSKNTLYLQMNSLRAEDTAVYYCAREFDYWGQGTLVTVTSSGGGGSGGGGSGGGGSQSVLAQPPSASGTPGQRVTISCSGSSSNIGSNYVYWYQQLPGTAPKLLIYGNNKRPSGVPDRFSGSKSGTSASLAISGLRSEDEADYYCAAWDDSLNGRVFGGGTKLTVLCPPCPAPEAAGAPSVFLFPPKPKDTLMISRTPEVTCVVVDVSHEDPEVKFNWYVDGVEVHNAKTKPREEQYNSTYRVVSVLTVLHQDWLNGKEYKCKVSNKALPAPIEKTISKAKGQPREPQVYTLPPCRDELTKNQVSLWCLVKGFYPSDIAVEWESNGQPENNYKTTPPVLDSDGSFFLYSKLTVDKSRWQQGNVFSCSVMHEALHNHYTQKSLSLSPGEPEA
chain 2: EVQLLESGGGLVQPGGSLRLSCAASGFTFSDYYMTWIRQAPGKGLEWVSSISGGSTYYADSRKGRFTISRDNSENTLYLQMNSLRAEDTAVYYCARDFGVAGWFGQYGMDVWGQGTLVTVSSGGGGSGGGGSGGGGSQSVLTQPPSASGTPGQRVTISCTGSSSNIGAGYDVHWYQQLPGTAPKLLIYRSNQRPSGVPDRFSGSKSGTSASLAISGLRSEDEADYYCSSYAGNYNLVFGGGTKLTVLCPPCPAPEAAGAPSVFLFPPKPKDTLMISRTPEVTCVVVDVSHEDPEVKFNWYVDGVEVHNAKTKPREEQYNSTYRVVSVLTVLHQDWLNGKEYKCKVSNKALPAPIEKTISKAKGQPREPQVCTLPPSRDELTKNQVSLSCAVKGFYPSDIAVEWESNGQPENNYKTTPPVLDSDGSFFLVSKLTVDKSRWQQGNVFSCSVMHEALHNHYTQKSLSLSPGWSHPQFEK
B3: DGL275 (bispecific antibody)
chain 1: not shown
chain 2: EVQLLESGGGLVQPGGSLRLSCAASGFTFSDYYMTWIRQAPGKGLEWVSSISGGSTYYADSRKGRFTISRDNSENTLYLQMNSLRAEDTAVYYCARDFGVAGWFGQYGMDVWGQGTLVTVSSGGGGSGGGGSGGGGSQSVLTQPPSASGTPGQRVTISCTGSSSNIGAGYDVHWYQQLPGTAPKLLIYRSNQRPSGVPDRFSGSKSGTSASLAISGLRSEDEADYYCSSYAGNYNLVFGGGTKLTVLDKTHTCPPCPAPEAAGAPSVFLFPPKPKDTLMISRTPEVTCVVVDVSHEDPEVKFNWYVDGVEVHNAKTKPREEQYNSTYRVVSVLTVLHQDWLNGKEYKCKVSNKALPAPIEKTISKAKGQPREPQVCTLPPSRDELTKNQVSLSCAVKGFYPSDIAVEWESNGQPENNYKTTPPVLDSDGSFFLVSKLTVDKSRWQQGNVFSCSVMHEALHNHYTQKSLSLSPGWSHPQFEK
B4: DGL274 (bispecific antibody)
chain 1: EVQLLESGGGLVQPGGSLRLSCAASGFTFSIYAMSWVRQAPGKGLEWVSAISGSGGSTYYADSVKGRFTISRDNSKNTLYLQMNSLRAEDTAVYYCARDFDYWGQGTLVTVTSSGGGGSGGGGSGGGGSQSVLTQPPSASGTPGQRVTISCSGSSSNIGSNYVYWYQQLPGTAPKLLIYGNINRPSGVPDRFSGSKSGTSASLAISGLRSEDEADYYCAAWDDSLNGRVFGGGTKLTVLPLAPCPPCPAPEAAGAPSVFLFPPKPKDTLMISRTPEVTCVVVDVSHEDPEVKFNWYVDGVEVHNAKTKPREEQYNSTYRVVSVLTVLHQDWLNGKEYKCKVSNKALPAPIEKTISKAKGQPREPQVYTLPPCRDELTKNQVSLWCLVKGFYPSDIAVEWESNGQPENNYKTTPPVLDSDGSFFLYSKLTVDKSRWQQGNVFSCSVMHEALHNHYTQKSLSLSPGEPEA
chain 2: EVQLLESGGGLVQPGGSLRLSCAASGFTFSNAWMNWVRQAPGKGLEWVSSISSSSSYIYYADSVKGRFTISRDNSKNTLYLQMNSLRAEDTAVYYCARAVAAGGMFWGLDQWGQGTLVTVTSSGGGGSGGGGSGGGGSQSVLTQPPSASGTPGQRVTISCSGSRSNIGSNSVHWYQQLPGTAPKLLIYGNSNRPSGVPDRFSGSKSGTSASLAISGLRSEDEADYYCQSYDSSLNDHVVFGGGTKLTVLPLAPCPPCPAPEAAGAPSVFLFPPKPKDTLMISRTPEVTCVVVDVSHEDPEVKFNWYVDGVEVHNAKTKPREEQYNSTYRVVSVLTVLHQDWLNGKEYKCKVSNKALPAPIEKTISKAKGQPREPQVCTLPPSRDELTKNQVSLSCAVKGFYPSDIAVEWESNGQPENNYKTTPPVLDSDGSFFLVSKLTVDKSRWQQGNVFSCSVMHEALHNHYTQKSLSLSPGWSHPQFEK
B5: DGL277 (bispecific antibody)
chain 1: EVQLLESGGGLVQPGGSLRLSCAASGFTFSSYAMSWVRQAPGKGLEWVANINQDGSEKNYVDSMRGRFTISRDNSKNTLYLQMNSLRAEDTAVYYCAREFDYWGQGTLVTVTSSGGGGSGGGGSGGGGSQSVLAQPPSASGTPGQRVTISCSGSSSNIGSNYVYWYQQLPGTAPKLLIYGNNKRPSGVPDRFSGSKSGTSASLAISGLRSEDEADYYCAAWDDSLNGRVFGGGTKLTVLPLAPCPPCPAPEAAGAPSVFLFPPKPKDTLMISRTPEVTCVVVDVSHEDPEVKFNWYVDGVEVHNAKTKPREEQYNSTYRVVSVLTVLHQDWLNGKEYKCKVSNKALPAPIEKTISKAKGQPREPQVYTLPPCRDELTKNQVSLWCLVKGFYPSDIAVEWESNGQPENNYKTTPPVLDSDGSFFLYSKLTVDKSRWQQGNVFSCSVMHEALHNHYTQKSLSLSPGEPEA
chain 2: EVQLLESGGGLVQPGGSLRLSCAASGFTFSDYYMTWIRQAPGKGLEWVSSISGGSTYYADSRKGRFTISRDNSENTLYLQMNSLRAEDTAVYYCARDFGVAGWFGQYGMDVWGQGTLVTVSSGGGGSGGGGSGGGGSQSVLTQPPSASGTPGQRVTISCTGSSSNIGAGYDVHWYQQLPGTAPKLLIYRSNQRPSGVPDRFSGSKSGTSASLAISGLRSEDEADYYCSSYAGNYNLVFGGGTKLTVLPLAPCPPCPAPEAAGAPSVFLFPPKPKDTLMISRTPEVTCVVVDVSHEDPEVKFNWYVDGVEVHNAKTKPREEQYNSTYRVVSVLTVLHQDWLNGKEYKCKVSNKALPAPIEKTISKAKGQPREPQVCTLPPSRDELTKNQVSLSCAVKGFYPSDIAVEWESNGQPENNYKTTPPVLDSDGSFFLVSKLTVDKSRWQQGNVFSCSVMHEALHNHYTQKSLSLSPGWSHPQFEK

Target: ALK-1/BMPR-2 receptor pair of the PathHunter U2Os dimerization cells (DiscoverX 93-0962C3) (UniProt P37023 22-503; Q13873 27-1038)
Assay: cell-based or functional assay

Sequence of ALK-1/BMPR-2 receptor pair of the PathHunter U2Os dimerization cells (DiscoverX 93-0962C3) (P37023 22-503, chain 1 of 2): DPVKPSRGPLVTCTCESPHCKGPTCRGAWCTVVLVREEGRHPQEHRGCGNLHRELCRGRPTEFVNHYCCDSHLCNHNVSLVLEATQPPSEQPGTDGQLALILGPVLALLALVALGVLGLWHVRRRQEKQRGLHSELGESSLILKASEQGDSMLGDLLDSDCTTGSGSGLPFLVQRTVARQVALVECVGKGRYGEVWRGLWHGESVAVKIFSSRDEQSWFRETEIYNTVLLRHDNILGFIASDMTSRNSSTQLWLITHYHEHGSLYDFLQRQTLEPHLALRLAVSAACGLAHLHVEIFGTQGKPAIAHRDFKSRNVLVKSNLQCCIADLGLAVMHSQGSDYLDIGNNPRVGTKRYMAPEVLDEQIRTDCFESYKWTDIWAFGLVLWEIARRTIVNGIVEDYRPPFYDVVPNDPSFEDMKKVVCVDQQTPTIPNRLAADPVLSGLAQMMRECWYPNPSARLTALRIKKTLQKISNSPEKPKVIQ
Sequence of ALK-1/BMPR-2 receptor pair of the PathHunter U2Os dimerization cells (DiscoverX 93-0962C3) (Q13873 27-1038, chain 2 of 2): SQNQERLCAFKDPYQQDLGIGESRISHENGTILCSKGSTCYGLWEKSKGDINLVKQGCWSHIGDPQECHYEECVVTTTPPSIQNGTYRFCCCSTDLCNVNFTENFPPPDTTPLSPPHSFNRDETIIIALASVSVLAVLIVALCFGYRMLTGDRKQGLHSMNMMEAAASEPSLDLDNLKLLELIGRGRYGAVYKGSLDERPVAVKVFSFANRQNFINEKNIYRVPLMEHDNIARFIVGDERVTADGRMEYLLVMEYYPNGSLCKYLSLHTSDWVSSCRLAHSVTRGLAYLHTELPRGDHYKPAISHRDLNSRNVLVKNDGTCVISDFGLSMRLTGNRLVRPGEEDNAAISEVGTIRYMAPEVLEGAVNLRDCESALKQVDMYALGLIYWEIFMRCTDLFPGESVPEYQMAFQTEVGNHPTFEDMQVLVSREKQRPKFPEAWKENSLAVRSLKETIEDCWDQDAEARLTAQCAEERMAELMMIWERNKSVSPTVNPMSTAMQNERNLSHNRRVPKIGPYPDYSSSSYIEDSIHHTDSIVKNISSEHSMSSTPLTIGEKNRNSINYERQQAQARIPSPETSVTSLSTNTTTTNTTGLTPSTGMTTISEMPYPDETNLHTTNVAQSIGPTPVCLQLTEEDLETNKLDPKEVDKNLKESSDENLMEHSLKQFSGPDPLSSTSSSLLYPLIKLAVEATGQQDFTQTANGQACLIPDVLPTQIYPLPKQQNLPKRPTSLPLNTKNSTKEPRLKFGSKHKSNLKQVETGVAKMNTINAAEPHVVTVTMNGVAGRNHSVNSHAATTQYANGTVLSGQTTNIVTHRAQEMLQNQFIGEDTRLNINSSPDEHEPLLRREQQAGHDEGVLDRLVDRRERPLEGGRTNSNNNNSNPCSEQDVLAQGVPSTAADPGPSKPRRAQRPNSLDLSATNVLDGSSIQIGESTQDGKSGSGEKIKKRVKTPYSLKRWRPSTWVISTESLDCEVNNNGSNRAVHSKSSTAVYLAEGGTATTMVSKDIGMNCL

Binder	% Emax BMP9	EC50	Emax (RLU)
B1	26%	14 nM	684000 RLU
B2	43%	1.2 nM	1.14e+06 RLU
B3	48%	0.9 nM	1.28e+06 RLU
B4	47%	1.7 nM	1.25e+06 RLU
B5	51%	1 nM	1.35e+06 RLU
